{"source": "paper PMC10524599", "about": "“Sensory deficit screen identifies nsf mutation that differentially affects SNARE recycling and quality control” (Cell reports, 2023)", "proteins": {"B1": {"name": "I209N NSF (N-ethylmaleimide-sensitive factor, C. griseus ortholog with the I209N mutation) (enzyme)", "chain": "MAGRSMQAARCPTDELSLSNCAVVSEKDYQSGQHVIVRTSPNHKYIFTLRTHPSVVPGSVAFSLPQRKWAGLSIGQEIEVALYSFDKAKQCIGTMTIEIDFLQKKNIDSNPYDTDKMAAEFIQQFNNQAFSVGQQLVFSFNDKLFGLLVKDIEAMDPSILKGEPASGKRQKIEVGLVVGNSQVAFEKAENSSLNLIGKAKTKENRQSINNPDWNFEKMGIGGLDKEFSDIFRRAFASRVFPPEIVEQMGCKHVKGILLYGPPGCGKTLLARQIGKMLNAREPKVVNGPEILNKYVGESEANIRKLFADAEEEQRRLGANSGLHIIIFDEIDAICKQRGSMAGSTGVHDTVVNQLLSKIDGVEQLNNILVIGMTNRPDLIDEALLRPGRLEVKMEIGLPDEKGRLQILHIHTARMRGHQLLSADVDIKELAVETKNFSGAELEGLVRAAQSTAMNRHIKASTKVEVDMEKAESLQVTRGDFLASLENDIKPAFGTNQEDYASYIMNGIIKWGDPVTRVLDDGELLVQQTKNSDRTPLVSVLLEGPPHSGKTALAAKIAEESNFPFIKICSPDKMIGFSETAKCQAMKKIFDDAYKSQLSCVVVDDIERLLDYVPIGPRFSNLVLQALLVLLKKAPPQGRKLLIIGTTSRKDVLQEMEMLNAFSTTIHVPNIATGEQLLEALELLGNFKDKERTTIAQQVKGKKVWIGIKKLLMLIEMSLQMDPEYRVRKFLALLREEGASPLDFD", "notes": "legend gives 82.8 kDa monomeric, 496.8 kDa hexameric; also called NSF I209N; I209N NSF protein; source: E. coli BL21(DE3)-RIL, purified (Nickel-NTA, SEC; monomerized without ATP, reassembled by SEC with 1 mM ATP)"}}, "molecular_target": "the molecule itself", "test": "SEC; NSF alone, reassembled to the hexamer by a final SEC run with buffer containing 1 mM ATP", "data": [{"protein": "B1", "values": [{"measurement": "stoichiometry N", "value": 6}]}]}
